The values that follow come from patent US11534461B2, “High affinity merkel cell polyomavirus T antigen-specific TCRS and uses thereof” (priority 2016, dated 2022).

Where “and” joins values, the source holds several entries; their conditions need not be identical. Identical values can stand only once.

The labels stand for the following.
T1: Merkel cell polyomavirus T antigen (common to large and small T antigen) peptide on HLA-A*02:01 (human)
T1 peptide: KLLEIAPNC

T2: Merkel cell polyomavirus T antigen (common to large and small T antigen) peptide on HLA-A*02:01 (human)
T2 peptide: KLLEIAPNC

T3: Merkel cell polyomavirus T antigen KLL epitope homolog (C-terminal cysteine replaced by alanine) peptide on … (human)
T3 peptide: KLLEIAPNA

B1: w830 clonotype 5 (TCR)
alpha TRAV12-1*01 TRAJ43*01 CDR3: CVVNANDMRF
beta TRBV10-3*01 TRBJ2-2*01 CDR3: CAIRARDQNTGELFF
B2: w876 clonotype 23 (TCR)
alpha TRAV12-3*01 TRAJ57*01 CDR3: CAMSVAQGGSEKLVF
beta TRBV6-6*01 TRBJ2-7*01 CDR3: CASSYQIGLSYEQYF
B3: w876 clonotype 12 (TCR)
alpha TRAV3*01 TRAJ40*01 CDR3: CAVRDNSGTYKYIF
beta TRBV7-2*04 TRBJ2-3*01 CDR3: CASSLAGLAGTDTQYF
B4: w876 clonotype 21 (TCR)
alpha TRAV3*01 TRAJ40*01 CDR3: CAVRDNSGTYKYIF
beta TRBV13*02 TRBJ2-1*01 CDR3: CASSSGTSGGLTYNEQFF
B5: w876 clonotype 18 (TCR)
alpha TRAV14 TRAJ13*01 CDR3: CAMREAQSGGYQKVTF
beta TRBV12-4*01 TRBJ2-3*01 CDR3: CASSFGSGTKDTQYF
B6: w876 clonotype 11 (TCR)
alpha TRAV12-1*01 TRAJ45*01 CDR3: CVVYTGYSGGGADGLTF
beta TRBV10-3*01 TRBJ2-2*01 CDR3: CAIHEGDSNTGELFF
B7: w678 clonotype 5 (TCR)
alpha TRAV38-1*01 TRAJ43*01 CDR3: CAFRVSHDMRF
beta TRBV10-2*01 TRBJ2-3*01 CDR3: CASSSGNPSTDTQYF
B8: MCC1 (TCR, V domains shown)
Valpha: RKEVEQDPGPFNVPEGATVAFNCTYSNSASQSFFWYRQDCRKEPKLLMSVYSSGNEDGRFTAQLNRASQYISLLIRDSKLSDSATYLCVVATYSGGGADGLTFGKGTHLIIQP
Vbeta: DAGITQSPRYKITETGRQVTLMCHQTWSHSYMFWYRQDLGHGLRLIYYSAAADITDKGEVPDGYVVSRSKTENFPLTLESATRSQTSVYFCASSSGNPSTDTQYFGPGTRLTVL
B9: w683 clonotype 2 (TCR)
alpha TRAV12-1*01 TRAJ43*01 CDR3: CVLNNNDMRF
beta TRBV6-5*01 TRBJ1-2*01 CDR3: CASRSQNYYGYTF
B10: w876 clonotype 2 (TCR)
alpha TRAV12-1*01 TRAJ45*01 CDR3: CVVTEYSGGGADGLTF
beta TRBV10-3*01 TRBJ2-2*01 CDR3: CASRGQNTGELFF
B11: w683 clonotype 1 (TCR)
alpha TRAV12-1*01 TRAJ45*01 CDR3: CVVALYSGGGADGLTF
beta TRBV6-5*01 TRBJ1-2*01 CDR3: CASRSQNYYGYTF
B12: w876 clonotype 26 (TCR)
alpha TRAV12-1*01 TRAJ45*01 CDR3: CVVYTGYSGGGADGLTF
beta TRBV13*02 TRBJ2-1*01 CDR3: CASSSGTSGGLNYNEQFF
B13: w876 clonotype 27 (TCR)
alpha TRAV3*01 TRAJ11*01 CDR3: CALTGYSTLTF
beta TRBV19*01 TRBJ2-1*01 CDR3: CASRSQLAVLNEQFF
B14: w830 clonotype 4 (TCR)
alpha TRAV12-1*01 TRAJ43*01 CDR3: CVLNNNDMRF
beta TRBV19*01 TRBJ1-5*01 CDR3: CASSILGASNQPQHF
B15: w876 clonotype 17 (TCR)
alpha TRAV12-1*01 TRAJ37*02 CDR3: CVVYGSSNTGKLIF
beta TRBV7-2*04 TRBJ2-1*01 CDR3: CASSLAGLANNEQFF
B16: w678 clonotype 2 (TCR)
alpha TRAV38-1*01 TRAJ43*01 CDR3: CAFRVSHDMRF
beta TRBV19*01 TRBJ2-1*01 CDR3: CASSIIAGSSYNEQFF
B17: w876 clonotype 20 (TCR)
alpha TRAV10*01 TRAJ45*01 CDR3: CVVSAGINGADGLTF
beta TRBV12-4*01 TRBJ2-1*01 CDR3: CASSPWDEQFF

In the first assay the target is T1, Merkel cell polyomavirus T antigen …. As to the kind of experiment: multimer staining.
In the case of B1, the binding result was “recognises”.
On the same count and under the same terms, to B2 belongs “recognises”; to B3, “recognises”.
Same read-out and setting: to B4 belongs “recognises”.
Still for that read-out and setting: to B5 belongs “recognises”.
For the molecule B6, the binding result was “recognises”.
Same read-out and setting: to B7 belongs “recognises”.
Still for that read-out and setting: to B8 belongs “recognises”.
In the case of B9, the binding result is reported as “recognises”.
As for B10, the binding result was “recognises”.
Turning to B11, the binding result was “recognises”.
For B12, the binding result is recorded as “recognises”.
As to B13, the binding result is “recognises”.
For the molecule B14, the binding result is on record as “recognises”.
Same read-out and setting: the entry for B15 is “recognises”.
Still for that read-out and setting: to B16 belongs “recognises”; to B17, “recognises”.

The target in the next assay is T2, Merkel cell polyomavirus T antigen …. As to the kind of experiment: multimer staining.
For the molecule B1, the binding result is recorded as “recognises”.
Same read-out and setting: to B5 belongs “recognises”; to B6, “recognises”; to B8, “recognises”.
Consider B9, for which the binding result is given as “recognises”.
As to B10, the binding result was “recognises”.
The same measure, in the same setting: to B11 belongs “recognises”; to B14, “recognises”.

The next assay concerns the target T3, Merkel cell polyomavirus T antigen KLL …. Description: IFN-g ELISA; T2 + peptide titration; T cell clone or line. (An ELISA detects its analyte on a solid surface through an enzyme-linked reagent.)
With B7, the EC50 of peptide is 0.11 ng/mL and 0.054 ng/mL.
Still for that read-out and setting: to B8 belongs 0.0094 ng/mL and 0.028 ng/mL; to B9, 0.21 ng/mL.
On to B10, for which the EC50 of peptide was found to be 1.2 ng/mL.
The same measure, in the same setting: the figure for B14 is 1.1 ng/mL; for B16 it is 0.017 ng/mL and 0.012 ng/mL.
